# Positions count from the first letter of the chain named.
# B1: reference antibody 6245P (antibody, from another filing, IgG4, V domains shown)
# VH: EVQLVESGGGLVQPGGSLRLSCAASGFTFNSFWMSWVRQAPGKGLEWVANIKQDGSEKYYVDSVKGRFTISRDNAKNSVYLQMNSLRAEDTAVYYCARDLVTSFDYWGQGTLVTVSS
# VL: DIQMTQSPSSLSASVGDRVTITCQASQDINNYLNWYQQKPGKAPKLLIYDASYLETGVPSGFSGSGSGTDFTFTISSLQPEDIATYYCQQYDSLPYTFGQGTKLEIK
# B2: Hu14E3_HaLa (antibody, human IgG1, kappa, V domains shown)
# VH: QVQLVQSGSELKKPGASVKVSCKASGYTFTTYGMAWMRQAPGQGLEWMGWINTLSGEPTYADDFKGRFVFSLDTSVSTAYLQISSLKAEDTAVYYCAREPMDYWGQGTMVTVSS
# VL: DVVMTQSPLSLPVTLGQPASISCKSSQSLLDSDGKTYLSWLQQRPGQSPRRLIYLVSKLDSGVPDRFSGSGSGTDFTLKISRVEAEDVGVYYCWQGAHFPLTFGQGTKLEIKR
# notes: also called anti-GREM1 antibody used in the present disclosure; humanized 14E3
# B3: Hu14E3_HbLb (antibody, human IgG1, V domains shown)
# VH: B2 VH with V2I, V69A
# VL: DVVMTQSPLSLPVTLGQPASISCKSSQSLLDSDGKTYLSWLQQRPGQSPRRLISLVSKLDSGVPDRFSGSGSGTDFTLKISRVEAEDVGVYYCWQGAHFPLTFGQGTKLEIK
# notes: also called humanized 14E3
# B4: Hu14E3_HaLa: humanized 14E3, heavy chain variable region SEQ ID NO: 7, light chain variable region SEQ ID NO: 8; antibody used in the examples (antibody, V domains shown)
# VH: B2 VH
# VL: B3 VL with S54Y
# B5: Hu14E3_HaLb (antibody, human IgG1, V domains shown)
# VH: B2 VH
# VL: B3 VL
# notes: also called humanized 14E3
# B6: Hu14E3_HbLa (antibody, human IgG1, V domains shown)
# VH: B2 VH with V2I, V69A
# VL: B3 VL with S54Y
# notes: also called humanized 14E3
# B7: Hu14E3_HcLb (antibody, human IgG1, V domains shown)
# VH: B2 VH with V2I, Y27S, R38K, E46T, V69A
# VL: B3 VL
# notes: also called humanized 14E3
# B8: Hu14E3_HcLa (antibody, human IgG1, V domains shown)
# VH: B2 VH with V2I, Y27S, R38K, E46T, V69A
# VL: B3 VL with S54Y
# notes: also called humanized 14E3
# Tests used:
# [1] = test system: esophageal cancer PDX model E7; test: Tumor growth inhibition in esophageal cancer PDX model; format: in vivo, NOD/SCID mice; conditions: 26th day; antibody 20 mg/kg i.p. twice a week, cisplatin 3 mg/kg i.v. once a week, 4 weeks
# Description: Human gremlin IHC specifically positive esophageal tumor tissue (E7) was obtained from Beijing Cancer Hospital passage in NOD/SCID mice and established PDX bank. […] Each mouse was subcutaneously inoculated with a small tumor tissue block approximately 3 mm in diameter which sheared from integrated tumor decollement form a tumor bearing mouse. 18 days after inoculation animals with tumor size at about 70 mmn^3 were selected and randomly divided into 4 groups, each group consisting of 8 mice. Then the mice were treated with isotype control+PBS, the anti-GREM1 antibody of the present disclosure at dose of 20 mg/kg, Cisplatin at dose of 3 mg/kg and combination of the anti-GREM1 antibody of the present disclosure and Cisplatin. Isotype control and the anti-GREM1 antibody of the present disclosure were administrated twice a week for 4 weeks by i.p. injection and PBS, while Cisplatin was administrated once a week for 4 weeks by i.v. injection. Animals were sacrificed at the end of the study with CO2 inhalation. Tumor size was measured twice or triple times a week in two dimensions using a caliper (INSIZE) and the volume was expressed in mmA3 using the formula: V=0.5 a*b^2 where a and b are the long and short diameters of the tumor, respectively. Results were analyzed using Prism GraphPad and expressed as mean±S.E.M. Comparisons between two groups were made by T-test, and the difference is considered significant if p is *<0.05 and **<0.01.
# [2] = molecular target: modified human GREM1-his (human) (UniProt O60565); test: blocking ELISA; competitor coated human BMP2; 1 ug/ml modified human GREM1-his detected with anti-his HRP
# [3] = molecular target: human Gremlin/GREM1 protein (Acro) (human) (UniProt O60565); test: BLI (ForteBio), human GREM1-his on NTA biosensor, antibody at 100, 50 and 25 nM
# [4] = molecular target: human Gremlin/GREM1 protein (Acro) (human) (UniProt O60565); test: ELISA, coated hGREM1 (ACRO)
# [5] = molecular target: human Gremlin/GREM1 protein (Acro) (human) (UniProt O60565); test: ELISA, binding to hGremlin-his
# [6] = molecular target: modified human GREM1-his (human) (UniProt O60565); test: blocking ELISA; competitor coated human BMP4; 1 ug/ml modified human GREM1-his detected with anti-his HRP
# [7] = molecular target: T1, human Gremlin/GREM1 protein (Acro) (human, UniProt O60565 25-184); test: ELISA, coated hGREM1 (ACRO)
# T1 construct: Bought protein (ACRO); also called hGREM1 (ACRO); human GREM1; not shown: his tag
# T1 sequence (looked up): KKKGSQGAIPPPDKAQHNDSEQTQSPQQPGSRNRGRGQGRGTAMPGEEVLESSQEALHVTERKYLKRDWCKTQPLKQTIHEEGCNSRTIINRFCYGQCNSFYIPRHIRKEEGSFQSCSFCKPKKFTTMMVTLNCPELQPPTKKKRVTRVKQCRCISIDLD
# Description: (§1) A transparent polystyrene culture plate (BEAVER) was coated with a high pH coating buffer containing 0.5 μg/ml hGREM1 (ACRO) and mouse gremlin (R&D) at 100 μl/well at 4° C. overnight. Then, the culture plate was washed once with PBS and 0.1% of Tween 20 (Sigma) on an automatic culture plate washer. 100 μl of a blocking solution consisting of PBS, 1% of BSA, 1% of standard goat serum and 0.50% of Tween 20 (Sigma) was added into each well for incubation at room temperature for 2 hours. Then, 100 μl of an antibody (started with 2 μg/ml and continuously diluted) in an antibody dilution buffer containing PBS, 1% of BSA, 1% of standard goat serum and 0.01% of Tween 20 was added into each well of the culture plate for incubation at room temperature for 1 hour. Then, the culture plate was washed with 200 μl of a solution containing PBS and 0.1% of Tween 20 for three times, and goat anti-mouse IgG-HRP (Abcam) at a ratio of 1:10000 was added at 100 μl/well for incubation at room temperature for 1 hour. Then, the culture plate was washed with a solution containing PBS and 0.1% of Tween 20 for 3 times. Finally, TMB (Pierce) was added into each well at 100 μl/well, and several minutes later, 50 μl of a termination solution was added into each well. The culture plate was read on a Multiscan FC microplate reader (Thermo Scientific) at 450 nM.
# [8] = molecular target: T1, human Gremlin/GREM1 protein (Acro); test: BLI (ForteBio), human GREM1-his on NTA biosensor
# Description: (§2) The concentration of 0 nM was used as a reference control. The antibody to be tested was diluted to a concentration of 100 nM, 50 nM and 25 nM with a ForteBio kinetic buffer (including PBS with a pH value of 7.4, 0.1% of BSA and 0.002% of Tween-20). […] Then, dissociation was performed in a kinetic buffer for 90 seconds to obtain Koff factor data.
# [9] = molecular target: T1, human Gremlin/GREM1 protein (Acro); test: BLI (ForteBio), human GREM1-his on NTA biosensor, antibody at 100, 50 and 25 nM
# Description: as §2
# [10] = molecular target: T1, human Gremlin/GREM1 protein (Acro); test: ELISA, binding to hGremlin-his
# Description: as §1
# Human GREM1 = molecular target: T2, Human GREM1 (Homo sapiens, UniProt O60565); test: Binding affinity to human GREM1 through ELISA; conditions: for EC50 of binding to hGremlin-his: Table 17
# T2 construct: His; purchased ACRO
# T2 sequence (O60565 25-184): T1 sequence (looked up)
# Description: as §1, with “nM. As shown in Table 16 and Table 17, compared with a reference antibody 6245P, the anti-GREM1 antibody used in the present disclosure and other humanized anti-GREM1 antibodies (e.g., Hu14E3_HaLb, Hu14E3_HbLa, Hu14E3_HbLb, Hu14E3_HcLa and Hu14E3_HcLb) have better binding affinity with human GREM1.” for “nM.”
molecule,measurement,setting,value
"N.N.[Cl][Pt][Cl] [Cisplatin, reference compound]",TGI (%),[1],59.79%
same,"Tumor size (mm^3, mean +/− S.E.M)",[1],479.41 +/− 104.05 mm^3
B1,IC50,[2],797 ng/mL
same,Kd,[3],2.58 nM
same,EC50,[4],57.5 ng/mL
same,EC50,[5],57.5 ng/mL
same,IC50,[6],638 ng/mL
B2,EC50,[7],6.9 ng/mL
same,Kd,[8],< 1 nM
same,Kd,[9],< 0.001 nM
B3,EC50,[10],6.2 ng/mL
same,EC50 of binding to hGremlin-his,Human GREM1,6.2 ng/mL
B4,EC50 (ng/ml) Human GREM1,Human GREM1; Table 16,6.90 ng/mL
same,EC50 of binding to hGremlin-his,Human GREM1,6.9 ng/mL
same,TGI (%),[1],42.92%
same,"Tumor size (mm^3, mean +/− S.E.M)",[1],680.59 +/− 163.73 mm^3
B5,EC50,[10],5.6 ng/mL
same,EC50 of binding to hGremlin-his,Human GREM1,5.6 ng/mL
B6,EC50,[10],6 ng/mL
same,EC50 of binding to hGremlin-his,Human GREM1,6.0 ng/mL
B7,EC50,[10],6.1 ng/mL
same,EC50 of binding to hGremlin-his,Human GREM1,6.1 ng/mL
B8,EC50,[10],6.6 ng/mL
same,EC50 of binding to hGremlin-his,Human GREM1,6.6 ng/mL

# Reference: US20260265352A1, “STABLE PHARMACEUTICAL FORMULATION COMPRISING ANTI-GREMLIN1 ANTIBODY” (SUZHOU TRANSCENTA THERAPEUTICS CO., LTD., priority 2022, published 2026)
